Test [1] concerns the target MsRv1272c (MSMEG_5009) from Mycobacterium smegmatis (Mycobacterium smegmatis (Msm) mc2 155) (UniProt A0R272).
Test [2] shares this target. Description: SEC. On the technique in general: Size exclusion chromatography separates by hydrodynamic size, large species first.

The stoichiometry N is the number of molecules, sites or subunits per partner or assembly.

Take “MsRv1273c (MSMEG_5008) from Mycobacterium smegmatis (from UniProt A0R271 1-578) (natural protein)”: in test [1], the basal ATPase activity of the MsRv1273c/72c complex in peptidiscs (malachite green) (nM Pi min^–1 mg^–1) stood at 148 and the basal ATPase activity of the MsRv1273c/72c complex in proteoliposomes (malachite green) (nM Pi min^–1 mg^–1) was found to be 181. Also, the stoichiometry N in test [2] worked out at 1.

The values above are taken from publication PMC12038006, “Structure and mechanism of a mycobacterial isoniazid efflux pump MsRv1273c/72c with a degenerate nucleotide-binding site” (Nature Communications, 2025).
